Laboratory results from US20050226874A1 (CENTRE NATIONAL DE LA RECHERCHE SCIENTIFIQUE CNRS A …, published 2005).
Residue numbers refer to the chain shown, from its start.

Columns and labels:
[1] = molecular target: T1, soluble human recombinant CD4 expressed in baculovirus (human, UniProt P01730 26-396, limits assumed); assay: SPR (BIAcore), CD4 immobilised, Exp. 1
T1 construct: Coated on plates for the ELISA and covalently immobilised on the sensor for BIAcore; Only called soluble; also called soluble CD4; CD4 expressed in the baculovirus
Method: (§1) The kinetic parameters of the binding of CD4 to the paratope of the Fab fragments of the 13B8.2 antibody were determined by analysis of the surface plasmon resonance by means of a BIAcore analyzer (BIAcore AB, Uppsala, Sweden).

[2] = molecular target: T1, soluble human recombinant CD4 expressed …; assay: SPR (BIAcore), CD4 immobilised, Exp. 2; Exp. 2
Method: as §1

[3] = molecular target: T2, membranous CD4 (wild human CD4 expressed on cells) (human, UniProt P01730 26-458); assay: flow cytometry, T A2.01/CD4 cells, Fab at 1 µg/ml, fluorescein-labeled anti-kappa chain antibody
T2 construct: whole, on cells; also called T A2.01/CD4 cells; T AN2.01/CD4 cells
Method: The binding of the wild or mutant Fabs to the membranous CD4 was evaluated by flow cytometry.
In order to determine the binding of the fragments to the membranous CD4, T AN2.01 CD4+ cells were analyzed by indirect immunofluorescent labeling and flow cytometry (FIG. 4).

[4] = molecular target: T1, soluble human recombinant CD4 expressed …; assay: ELISA on coated baculovirus-expressed soluble CD4, anti-human kappa-peroxidase, A490 [panel Mutants CDR-H 13B8.2]
Method: A 1:500 dilution of the CD4 fraction expressed by the baculovirus in 0.1 M carbonate/bicarbonate buffer, pH 9.6, was incubated overnight at 4° C. on 96-well enzymatic immunoanalysis plates (Nunc, Paisley, UK). Four washings with the phosphate saline buffer (PBS) 160 mM pH 7.2, containing 0.1% Tween 20 (PBD-T), were performed before and after the saturation of the microplates, with powdered skim milk at a concentration of 1% in the PBS-T for one hour at 37° C.

[5] = molecular target: T3, biotinylated human recombinant CD4 (Repligen Inc.) (human, UniProt P01730 26-394, limits assumed, biotinylated (sites not given)); assay: Spot peptides on cellulose membrane probed with biotinylated CD4
T3 construct: Probe of the Spot membranes, used at 1 µg/ml; also called biotinylated CD4; CD4 probe
Method: (§2) The antigenic reactivity of the peptides bound to the cellulose membrane was tested with biotinylated CD4 (1 μg/ml) under conditions that led to the production of a blue precipitate for the reactive spots as described in [Bès, 2001b].

[6] = molecular target: T3, biotinylated human recombinant CD4 …; assay: Spot peptide on cellulose probed with biotinylated CD4
Method: as §2

B1: mutant Fab Y36-L of the 13B8.2 antibody (Fab, V domains shown)
VH: QVQLKQSGPGLVQPSQSLSITCTVSGFSLTTFGVHWVRQSPGKGLEWLGVIWRSGITDYNVPFMSRLSITKDNSKSQVFFKLNSLQPDDTAIYYCAKNDPGTGFAYWGQGTLVTVSA
VL: DIQMTQSPASLSASVGETVTFTCRASENIYSYLAWAQQKQGKSPQLLVHDAKTLAEGVPSRFSGGGSGTQFSLKINTLQPEDFGTYYCQHHYGNPPTFGGGTKLEIK
notes: Chimeric Fab with human CH1-γ1 and Cκ; baculovirus/Sf9
[1]
  Kd: 25.4 nM
  koff: 0.000651 s⁻¹
  kon: 25600 M⁻¹ s⁻¹
[2]
  Kd: 11.4 nM
  koff: 0.00057 s⁻¹
  kon: 50000 M⁻¹ s⁻¹
[3]
  percent of cells under the marker bar of the histogram: 44.6%

B2: mutant Fab Y102-H of the 13B8.2 antibody (Fab, V domains shown)
VH: B1 VH with Y106A
VL: B1 VL with A36Y
notes: as for B1
[4]
  binding result: binds

## WASGIT (also called WASGIT) [alanine analogue of peptide 52WRSGIT57 with Arg53 replaced by Ala (dotted bar R53)]
[5]
  binding result: no binding

B3: alanine analogue of peptide 49GVIWRS54 with Arg53 replaced by Ala (peptide)
peptide: GVIWAS
notes: Spot peptide on cellulose membrane; also called GVIWAS
[6]
  binding result: no binding

B4: alanine analogue of peptide 49GVIWRS54 with Val50 replaced by Ala (peptide)
peptide: GAIWRS
notes: Spot peptide on cellulose membrane; also called GAIWRS
[5]
  binding result: binds

B5: alanine analogue of peptide 49GVIWRS54 with Ser54 replaced by Ala (peptide)
peptide: GVIWRA
notes: Spot peptide on cellulose membrane; also called GVIWRA
[6]
  binding result: binds
